The supplement of paper PMC11316812
± gives the standard deviation of the averaged measurements.

Experiments:
hTERT-HMEC = experiment: percentage of EdU-negative (G0-arrested) nuclei per well, 72 h; higher = more G0 arrest; details: reference: sequence is the full UniProt precursor, the tested protein was the secreted form or ectodomain
MCF7 = experiment: as above; details: reference: sequence is the full UniProt precursor, the tested protein was the secreted form or ectodomain
[1] = protein concentration 0.0225 µM
[2] = protein concentration 0.027265 µM
[3] = protein concentration 0.27265 µM
[4] = protein concentration 0.00775 µM
[5] = protein concentration 0.0775 µM
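Further: secreted proteins added to cultured cells, EdU pulse at the end, nuclei found by Hoechst imaging, EdU status from nuclear versus surrounding ring intensity ratio, PBS as neutral control.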

Sequence | percentage of EdU-negative (hTERT-HMEC; [1]) [%] | percentage of EdU-negative (hTERT-HMEC; protein concentration 0.225 µM) [%] | percentage of EdU-negative (MCF7; [1]) [%] | percentage of EdU-negative (MCF7; protein concentration 0.225 µM) [%] | also measured
MPALGWAVAAILMLQTAMAEPSPGTLPRKAGVFSDLSNQELKAVHSFLWSKKELRLQPSSTTTMAKNTVFLIEMLLPKKYHVLRFLDKGERHPVREARAVIFFGDQEHPNVTEFAVGPLPGPCYMRALSPRPGYQSSWASRPISTAEYALLYHTLQEATKPLHQFFLNTTGFSFQDCHDRCLAFTDVAPRGVASGQRRSWLIIQRYVEGYFLHPTGLELLVDHGSTDAGHWAVEQVWYNGKFYGSPEELARKYADGEVDVVVLEDPLPGGKGHDSTEEPPLFSSHKPRGDFPSPIHVSGPRLVQPHGPRFRLEGNAVLYGGWSFAFRLRSSSGLQVLNVHFGGERIAYEVSVQEAVALYGGHTPAGMQTKYLDVGWGLGSVTHELAPGIDCPETATFLDTFHYYDADDPVHYPRALCLFEMPTGVPLRRHFNSNFKGGFNFYAGLKGQVLVLRTTSTVYNYDYIWDFIFYPNGVMEAKMHATGYVHATFYTPEGLRHGTRLHTHLIGNIHTHLVHYRVDLDVAGTKNSFQTLQMKLENITNPWSPRHRVVQPTLEQTQYSWERQAAFRFKRKLPKYLLFTSPQENPWGHKRTYRLQIHSMADQVLPPGWQEEQAITWARYPLAVTKYRESELCSSSIYHQNDPWHPPVVFEQFLHNNENIENEDLVAWVTVGFLHIPHSEDIPNTATPGNSVGFLLRPFNFFPEDPSLASRDTVIVWPRDNGPNYVQRWIPEDRDCSMPPPFSYNGTYRPV | – | – | – | – | percentage of EdU-negative (hTERT-HMEC; protein concentration 0.019 µM): 5.16 ± 1.3%; percentage of EdU-negative (hTERT-HMEC; protein concentration 0.19 µM): 11 ± 0.68%; percentage of EdU-negative (MCF7; protein concentration 0.019 µM): 25 ± 4.8%; percentage of EdU-negative (MCF7; protein concentration 0.19 µM): 29.1 ± 1.2%
MPAVFMLASSSALQCGRGVPRFPRTEVGAGHSVNEETKAEKVGNQTSVIPATSRQAALGTSWTQRRTQPLQERSHWHPRGNNASGMGGHRMFPGPLRGPAAQVLENECGSLGRAAEGRS [Q8N2X6] | 4.66 ± 0.059 | 4.77 ± 0.18 | 24.5 ± 1.8 | 24.7 ± 0.9 | –
MPDTMLPACFLGLLAFSSACYFQNCPRGGKRAMSDLELRQCLPCGPGGKGRCFGPSICCADELGCFVGTAEALRCQEENYLPSPCQSGQKACGSGGRCAAFGVCCNDESCVTEPECREGFHRRARASDRSNATQLDGPAGALLLRLVQLAGAPEPFEPAQPDAY | – | – | – | – | percentage of EdU-negative (hTERT-HMEC; [2]): 5.39 ± 0.55%; percentage of EdU-negative (hTERT-HMEC; [3]): 5.52 ± 1.1%; percentage of EdU-negative (MCF7; [2]): 24 ± 0.36%; percentage of EdU-negative (MCF7; [3]): 24.4 ± 0.13%
MPEEGSGCSVRRRPYGCVLRAALVPLVAGLVICLVVCIQRFAQAQQQLPLESLGWDVAELQLNHTGPQQDPRLYWQGGPALGRSFLHGPELDKGQLRIHRDGIYMVHIQVTLAICSSTTASRHHPTTLAVGICSPASRSISLLRLSFHQGCTIASQRLTPLARGDTLCTNLTGTLLPSRNTDETFFGVQWVRP | 5.04 ± 0.08 | 5.11 ± 0.64 | 26.5 ± 2.2 | 26.6 ± 0.44 | –
MPERLAEMLLDLWTPLIILWITLPPCIYMAPMNQSQVLMSGSPLELNSLGEEQRILNRSKRGWVWNQMFVLEEFSGPEPILVGRLHTDLDPGSKKIKYILSGDGAGTIFQINDVTGDIHAIKRLDREEKAEYTLTAQAVDWETSKPLEPPSEFIIKVQDINDNAPEFLNGPYHATVPEMSILGTSVTNVTATDADDPVYGNSAKLVYSILEGQPYFSIEPETAIIKTALPNMDREAKEEYLVVIQAKDMGGHSGGLSGTTTLTVTLTDVNDNPPKFAQSLYHFSVPEDVVLGTAIGRVKANDQDIGENAQSSYDIIDGDGTALFEITSDAQAQDGIIRLRKPLDFETKKSYTLKVEAANVHIDPRFSGRGPFKDTATVKIVVEDADEPPVFSSPTYLLEVHENAALNSVIGQVTARDPDITSSPIRFSIDRHTDLERQFNINADDGKITLATPLDRELSVWHNITIIATEIRNHSQISRVPVAIKVLDVNDNAPEFASEYEAFLCENGKPGQVIQTVSAMDKDDPKNGHYFLYSLLPEMVNNPNFTIKKNEDNSLSILAKHNGFNRQKQEVYLLPIIISDSGNPPLSSTSTLTIRVCGCSNDGVVQSCNVEAYVLPIGLSMGALIAILACIILLLVIVVLFVTLRRHKNEPLIIKDDEDVRENIIRYDDEGGGEEDTEAFDIATLQNPDGINGFLPRKDIKPDLQFMPRQGLAPVPNGVDVDEFINVRLHEADNDPTAPPYDSIQIYGYEGRGSVAGSLSSLESTTSDSDQNFDYLSDWGPRFKRLGELYSVGESDKET | – | – | – | – | percentage of EdU-negative (hTERT-HMEC; [4]): 5.37 ± 0.11%; percentage of EdU-negative (hTERT-HMEC; [5]): 5.69 ± 0.22%; percentage of EdU-negative (MCF7; [4]): 27.78 ± 0.12%; percentage of EdU-negative (MCF7; [5]): 34.9 ± 1.6%
MPGAAEALPTVTVTLVAGAVPPASGALTAHCIGGFWREVGVASDQSLVLTAPKRVEGLFLTLSGSNLTVKVAYNSSGSCEIEKIVGSEIDSTGKFAFPGHREIHVLDTDYEGYAILRVSLMWRGRNFRVLKYFTRSLEDKDRLGFWKFRELTADTGLYLAARPGRCAELLKEELI [Q6JVE9] | 5.03 ± 0.21 | 9.51 ± 1.1 | 26.5 ± 1.8 | 31 ± 2.1 | –
